T1: SUMOylated GFP:RGA (plant-derived)
T1 chain 1: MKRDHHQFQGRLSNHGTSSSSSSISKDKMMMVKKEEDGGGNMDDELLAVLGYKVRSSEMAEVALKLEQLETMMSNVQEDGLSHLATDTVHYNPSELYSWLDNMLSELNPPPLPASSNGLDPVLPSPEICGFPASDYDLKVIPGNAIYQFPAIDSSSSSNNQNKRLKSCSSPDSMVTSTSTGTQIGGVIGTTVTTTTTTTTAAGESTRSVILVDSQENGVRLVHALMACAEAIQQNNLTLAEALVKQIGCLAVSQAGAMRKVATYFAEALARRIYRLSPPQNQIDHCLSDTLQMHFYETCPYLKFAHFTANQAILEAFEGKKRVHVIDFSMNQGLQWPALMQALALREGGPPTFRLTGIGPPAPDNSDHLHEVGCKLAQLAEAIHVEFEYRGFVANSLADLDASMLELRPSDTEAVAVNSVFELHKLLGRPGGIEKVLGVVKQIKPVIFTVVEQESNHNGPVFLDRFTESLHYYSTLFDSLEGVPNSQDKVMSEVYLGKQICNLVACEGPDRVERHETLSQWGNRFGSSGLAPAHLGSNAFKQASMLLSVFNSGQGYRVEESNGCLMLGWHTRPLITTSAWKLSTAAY
T1 chain 2: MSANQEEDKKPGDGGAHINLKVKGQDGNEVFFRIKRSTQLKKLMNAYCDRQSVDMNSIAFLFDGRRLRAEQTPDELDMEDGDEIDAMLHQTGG

T2: GID1a (Arabidopsis thaliana, UniProt Q9MAA7)
T2 construct: The GID1a ORF was amplified by PCR from whole cDNAs from seedlings with oligos LC73 and LC74; made in house; host or cells: E. coli
T2 sequence (Q9MAA7 1-345): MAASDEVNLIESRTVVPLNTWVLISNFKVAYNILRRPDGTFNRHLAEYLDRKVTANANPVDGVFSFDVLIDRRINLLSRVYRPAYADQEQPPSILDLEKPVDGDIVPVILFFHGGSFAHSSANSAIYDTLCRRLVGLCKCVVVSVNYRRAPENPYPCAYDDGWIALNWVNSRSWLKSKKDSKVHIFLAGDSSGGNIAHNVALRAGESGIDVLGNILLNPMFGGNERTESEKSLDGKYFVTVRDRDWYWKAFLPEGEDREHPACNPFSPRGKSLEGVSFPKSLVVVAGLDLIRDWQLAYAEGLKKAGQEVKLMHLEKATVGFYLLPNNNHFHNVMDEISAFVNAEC

B1: His:OTS1 (protein)
chain: MTKRKKEVIDVDCSEKKDFVIDWSSAMDKEDEVPELEIVNTTKPTPPPPPTFFSDDQTDSPKLLTDRDLDEQLERKKAILTLGPGLPDKGEKIRLKIADLEEEKQRRVLEGSKMEVDRSSKVVSSTSSGSDVLPQGNAVSKDTSRGNADSKDTSRQGNADSKEVSRSTFSAVFSKPKTDSQSKKAFGKELEDLGCERRKHKAGRKPVTRLSNGWRLLPDVGKAEHSAKQFDSGLKESKGNKKSKEPYGKKRPMESSTYSLIDDDDDDDDDDDNDTSGHETPREWSWEKSPSQSSRRRKKSEDTVINVDEEEAQPSTVAEQAAELPEGLQEDICYPTRDDPHFVQVCLKDLECLAPREYLTSPVMNFYMRFLQQQISSSNQISADCHFFNTYFYKKLSDAVTYKGNDKDAFFVRFRRWWKGIDLFRKAYIFIPIHEDLHWSLVIVCIPDKKDESGLTILHLDSLGLHSRKSIVENVKRFLKDEWNYLNQDDYSLDLPISEKVWKNLPRRISEAVVQVPQQKNDFDCGPFVLFFIKRFIEEAPQRLKRKDLGMFDKKWFRPDEASALRIKIRNTLIELFRVSDQTE
B2: AtS1: Arabidopsis small ubiquitin-like modifier SUMO1, recombinant (protein)
chain: MSANQEEDKKPGDGGAHINLKVKGQDGNEVFFRIKRSTQLKKLMNAYCDRQSVDMNSIAFLFDGRRLRAEQTPDELDMEDGDEIDAMLHQTGG
B3: SUMOylated RGA: plant-derived SUMOylated form of GFP:RGA DELLA protein (protein)
chain 1: MKRDHHQFQGRLSNHGTSSSSSSISKDKMMMVKKEEDGGGNMDDELLAVLGYKVRSSEMAEVALKLEQLETMMSNVQEDGLSHLATDTVHYNPSELYSWLDNMLSELNPPPLPASSNGLDPVLPSPEICGFPASDYDLKVIPGNAIYQFPAIDSSSSSNNQNKRLKSCSSPDSMVTSTSTGTQIGGVIGTTVTTTTTTTTAAGESTRSVILVDSQENGVRLVHALMACAEAIQQNNLTLAEALVKQIGCLAVSQAGAMRKVATYFAEALARRIYRLSPPQNQIDHCLSDTLQMHFYETCPYLKFAHFTANQAILEAFEGKKRVHVIDFSMNQGLQWPALMQALALREGGPPTFRLTGIGPPAPDNSDHLHEVGCKLAQLAEAIHVEFEYRGFVANSLADLDASMLELRPSDTEAVAVNSVFELHKLLGRPGGIEKVLGVVKQIKPVIFTVVEQESNHNGPVFLDRFTESLHYYSTLFDSLEGVPNSQDKVMSEVYLGKQICNLVACEGPDRVERHETLSQWGNRFGSSGLAPAHLGSNAFKQASMLLSVFNSGQGYRVEESNGCLMLGWHTRPLITTSAWKLSTAAY
chain 2: MSANQEEDKKPGDGGAHINLKVKGQDGNEVFFRIKRSTQLKKLMNAYCDRQSVDMNSIAFLFDGRRLRAEQTPDELDMEDGDEIDAMLHQTGG
modifications: left off: large carriers
notes: plant-derived SUMOylated form of GFP:RGA DELLA protein

Assays:
[1] = molecular target: T3, SUMO1 (Arabidopsis thaliana, UniProt P55852); assay: Far-western / peptide array of GID1 SIM peptides probed with SUMO1; type: binding; conditions: for SIM-SUMO1 interaction (far-western): 1 μg peptide spotted on PVDF, probed with His:proAtSUMO1 (10 μg/ml); for interaction with SUMO1 (peptide array): peptide arrays of GID1 SIMs
T3 construct: His (N); made in house; host or cells: E. coli
T3 sequence (P55852 whole entry): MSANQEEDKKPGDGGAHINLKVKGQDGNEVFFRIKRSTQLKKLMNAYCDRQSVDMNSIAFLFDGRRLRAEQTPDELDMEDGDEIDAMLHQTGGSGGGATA
Experimental: FIGS. 9A-C. GID1a contains a functional SIM motif in the N-terminal region. a, amino acid positions of two putative SIMs (SUMO interacting motifs) in the GID1a N-terminal domain (SEQ ID NO: 59). Lower panel, far-western assays of two peptides corresponding to SIM A (SEQ ID NO: 60) and SIM B (SEQ ID NO: 58). […] Number indicates molecular mass (kDa). Non-transgenic, wild-type extracts (wt) were used as a negative control. c, mean root growth of 10 days old seedlings in the presence of 100 mM NaCl expressed as a inhibition (%) relatively to the untreated controls. Error bar=s.e.m. n=16.
Peptides corresponding to the putative SIMs in GID1 were purchased from Cambridge Research Biochemicals. 1 μg of each peptide was spotted on a PVDF membrane. Membranes were washed in 100% Ethanol, equilibrated in TBST (25 mM Tris HCl, pH 8.0, 150 mM NaCl, 0.05% Tween 20) and blocked in TBST-Milk 5%. Peptides were probed overnight at 4° C. with recombinant His:proAtSUMO1 (10 μg/ml), washed and subsequently probed with SUMO1 antibodies for standard chemoluminescence-based detection.

[2] = molecular target: T1, SUMOylated GFP:RGA (plant-derived)
[3] = molecular target: T2, GID1a; assay: SPR (Biacore 2000) on immobilised GID1a; type: binding
Experimental: FIG. 17. SUMO inhibits GID1a binding to RGA-DELLA protein Interaction between RGA alone with GID1a (red) and, RGA and SUMO1 (AtS1, blue) with GID1a both in the presence of GA3. […] Method: SPR was carried out on a Biacore 2000 instrument at 25° C. Purified GID1a was amine-coupled to a CM5 sensor chip (GE Healthcare). Flow cell 1 was blocked using ethanolamine and used as reference. Approx 500 RU of GID1a was bound to flow cells 2 and 3. All binding assays were carried out in HBS-EP buffer (10 mM HEPES pH 7.5, 150 mM NaCl, 1 mM EDTA, 1 mM DTT, 0.005% P20) at a flow rate of 20 μl/min using 180 second injections followed by 180 s of dissociation in HBS-EP. Each condition was run in duplicate using proteins at 100 μg/ml in HBS-EP (containing 100 μM GA3 as appropriate). Regeneration used 10 mM glycine pH 1.5 at 30 μl/min for 30 s.
FIGS. 18A and B. GID1a—SUMO Interaction Data Sensorgram of interaction between SUMO1 (AtS1) with GID1a.

[4] = molecular target: T2, GID1a; assay: GST pull down assay with GST:GID1a; type: binding; conditions: presence or absence of GA3 (10 μM)
Experimental: FIGS. 4A-F. SUMOylated DELLA binds GID1 independently from GA. a, crossspecies alignment of SIM B in the GID1 protein amino terminal extension (grey). Alignment discloses SEQ ID NOS 50-55, respectively, in order of appearance. b, GST pull down assay between His:AtSUMO1 and GST:GID1a or GST in the presence (+) or absence (−) of GA3 (10 μM). Asterisk indicates a cross-reacting band. c, GST pull down assay between plant-derived GFP:RGA proteins with recombinant GST:GID1a or GST. d, mean germination rates (percentage of visible green cotyledons) of wild type (wt), ots1 ots2 double mutants and transgenic lines (T4). n=40-80 for each treatment/genotype combination. Error bar=s.d. of three biological replicates. e, images of NaCl-grown seedlings. Bar=1 cm f, model for the SUMOylation-dependent DELLA accumulation. For recombinant proteins, affinity purified GST:GID1a (0.1 μg) or GST were mixed with His:AtSUMO1 (0.1 μg) and incubated in 1× reaction buffer (Gamborg's B5—minimal organics, 50 mM NaCl, 0.05% Igepal CA-630, 1 mM DTT, 50 mM Tris HCl, pH 7.5). GA3 was added at a final concentration of 10 μM. Proteins were pulled-down using the μMACS GST Isolation Kit, according to the manufacturers' instruction (Miltenyi biotech). […]

Molecule	SIM-SUMO1 interaction (far-western) [1]	interaction with SUMO1 (peptide array) [1]	binding to GST:GID1a (GST pull down) [4]	further results
SIM B V22A: SIM B peptide with substitution of a hydrophobic amino acid for an alanine residue (VVPLNTWALISN)	strongly reduced SIM-SUMO1 interaction	reduction in interaction		
SIM B: peptide corresponding to putative SUMO interacting motif B in the GID1a N-terminal domain (SEQ ID NO: 58) (VVPLNTWVLISN; listed as Arabidopsis thaliana)	Binding between the SIM and SUMO1 occurs	shown to be a genuine SIM		
B1				in vitro deSUMOylation of immunoprecipitated GFP:RGA (anti-SUMO1 immunoblot) [2]: dramatic reduction of the higher molecular weight, anti-SUMO1 cross-reacting bands only in the tubes containing wild-type OTS1
B2			can bind to SUMO1 from Arabidopsis in a GA-independent manner	binding of AtS1 to GID1a (SPR sensorgram) ([3]; 25° C., HBS-EP buffer, proteins at 100 μg/ml): binding and saturation of AtS1 to GID1a followed by disassociation; effect on RGA binding to GID1a (SPR combined response) ([3]; RGA and AtS1 together, in the presence of GA3 (100 μM)): combined response (blue) is reduced in the presence of AtS1
B3			could bind to GST:GID1a even in the absence of GA	

Source: US20150353950A1, “TRANSGENIC PLANTS” (Durham University, priority 2012, published 2015)
